Experimental data published in paper PMC2791442.

Legend:
Test in all cases: EMSA
Settings in all cases: EMSA: 200 ng protein, 5 ng 3'-biotin-labeled promoter DNA, 6% DNA retardation gel, 100 V at 4 C; binding buffer, salt and pH not stated
[1] = target: T1, MqsA-F (Escherichia coli) (UniProt Q46864)
T1 sequence: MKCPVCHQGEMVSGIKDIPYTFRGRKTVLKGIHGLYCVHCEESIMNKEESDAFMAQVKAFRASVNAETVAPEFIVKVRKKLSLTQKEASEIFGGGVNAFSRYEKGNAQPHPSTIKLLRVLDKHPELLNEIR

[2] = target: MqsR;MqsA-F (Escherichia coli;Escherichia coli) (UniProt Q46865+Q46864)
[3] = target: T2, MqsA-C (Escherichia coli) (UniProt Q46864)
T2 sequence: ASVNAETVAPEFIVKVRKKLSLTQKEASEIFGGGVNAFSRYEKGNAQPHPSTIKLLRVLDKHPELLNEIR

[4] = target: T3, MqsA-N (Escherichia coli) (UniProt Q46864)
T3 sequence: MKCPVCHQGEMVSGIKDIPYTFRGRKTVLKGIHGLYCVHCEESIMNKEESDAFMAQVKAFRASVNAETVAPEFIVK

[5] = target: MqsR;MqsA-N (Escherichia coli;Escherichia coli) (UniProt Q46865+Q46864)
Sequence of MqsR;MqsA-N (Escherichia coli;Escherichia coli) (Q46865 whole entry, one chain of several): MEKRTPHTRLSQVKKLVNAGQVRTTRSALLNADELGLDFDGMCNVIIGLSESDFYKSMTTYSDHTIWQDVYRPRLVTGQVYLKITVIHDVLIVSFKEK

Sequence of MqsR;MqsA-F (Escherichia coli;Escherichia coli) (Q46865 whole entry, one chain of several): as above

Row | Sequence | binding [1] | binding [2] | binding [3] | binding [4] | binding [5]
1 | CGGGTTAGTGCTAGTATGAAAAAGTGAGTCCTGTCCCGCTTCCTTCCTAATTGTAATTTTTCGTAATAATGCGATGAAAACCTGCAAAGAGTGGCTTATAGTTAAGCTAACAAACGAGAGGGCAAGTCCAGGTCAGTAAGTTTTTTCCATCCCGAAAGGTGTCCGTTAGTTCAACCGCTAAGAAGGGGACGCGTTATGGATGAATACTCACCCAAAAGACATGATATCGCACAGCTTAAGT (double strand) [PtomB] | no binding | no binding | – | – | –
2 | CCTGCAGAGTCAAACTGACATGTTTCATTTTTCCCGTTCCAGGCATTTTAATTCCTTCGCGTGTTTTCTGTCCAACCCTGCCTGCATGGCAGAAGGAATTCACCTGGTGTATTAAAGTGAATAATCATAAACCACTCACCTTTGTTGTTATTAGCAGCAGAACAATGATGTGGTTAGTTAATTAAAGCTGAAAATAAGCTTTTTGCCTGGATTTTTATGGCGGCTTACGCCGCCGTTGAAACTTTAATCATCACCCGCCACGCGGATCACCACTTTGC (double strand) [PmcbR] | binds | – | – | – | –
3 | CAGTCATCCGGTATAGTTCTTCATAATCTCTGCAAAATCATCGTGTTGTAATATTCTCTCATCACTCTCCATCAAATTTTCTTTTTTTCTCCATAATTGGCGCAAAAGTGTTTTTTACACTTTCATTGTTTTACCGTTGCTCTGATTAATTGACGCTAAAGTCAGTAAAGTTAATCTCGTCAACACGGCACGCTACTTAAGAAAGCCGTAATAAATAACTGAAAGGAAGGATATAGAATATGCGTAAATTAACTGCACTGTTTGTTGCC (double strand) [Pspy] | binds | – | – | – | –
4 | CGTGTATGTGGTGTGCGTTTTTCCATAACCCCCGCCTCCCTGTTACTTTAGTTATAACCTAAAAGGTTAATTACAGCAATGAAAAAGCACCTAAAAGGTTAGTTAGATGTACGGAGATAGTGACCACACAAAACGTATTCTTTAAGGAAAGTGATTGACCATATAAGAAAGTGGCGCATTAGTAGCGCCAGTTTGAAGCAGGAATTTATAAGGGAAGCTGGAGTCAGGCATCAC (double strand) [PmqsR] | binds | binds | binds | no binding | no binding
